In series [1] the test system is IscR-C92A (apo-locked) (Escherichia coli). The experiment in a line: EMSA. On the technique in general: In EMSA bound probe runs differently from free probe, usually more slowly.
Series [2] has as its system Fur (Mn2+-Fur) (Escherichia coli). The experiment in a line: EMSA.

The substance “control DNA in 3' end of hmuR coding region” displayed a binding in series [1] of 250 nM.
On to hmuR promoter (p1), for which the binding in series [2] stood at 31.2 nM.
In series [1], hmuR-hmuS intergenic, larger fragment yielded a binding of 62.5 nM.

The record behind these values is PMC5827684.
